Assay results as given in US20140072613A1, “Compositions and Methods for Treating Cutaneous Scarring” (priority 2012, published 2014).

How the values were obtained:
[1] = molecular target: 266 human kinases (Homo sapiens, UniProt P12931); assay: biochemical; assay type: biochemical; details: 100 μM
Description: (§1) Specifically, in these assays, a positively charged substrate is phosphorylated with a radiolabeled phosphate group from an ATP if the kinase is not inhibited by an inhibitor peptide. The positively charged substrate then is attracted to a negatively charged filter membrane, quantified with a scintillation counter, and compared to a 100% activity control.

[2] = molecular target: MAPKAP-K2 (h) (Homo sapiens, UniProt P49137); assay: Millipore radiometric kinase assay (IC50 Profiler Express / kinase profiling); assay type: biochemical; details: MAPKAP-K2(h); 100 μM
Description: as §1

[3] = molecular target: MAPKAP-K3 (h) (Homo sapiens, UniProt Q16644); assay: as above; assay type: biochemical; details: MAPKAP-K3(h); 100 μM
Description: as §1

[4] = molecular target: TrkB (h) (Homo sapiens, UniProt Q16620); assay: as above; assay type: biochemical; details: TrkB(h); 100 μM
Description: as §1

[5] = molecular target: T1, DMPK (h) (Homo sapiens, UniProt Q09013); assay: Millipore radiometric kinase assay (IC50 Profiler Express); assay type: biochemical; details: DMPK(h); 100 μM
T1 sequence (Q09013 1-629): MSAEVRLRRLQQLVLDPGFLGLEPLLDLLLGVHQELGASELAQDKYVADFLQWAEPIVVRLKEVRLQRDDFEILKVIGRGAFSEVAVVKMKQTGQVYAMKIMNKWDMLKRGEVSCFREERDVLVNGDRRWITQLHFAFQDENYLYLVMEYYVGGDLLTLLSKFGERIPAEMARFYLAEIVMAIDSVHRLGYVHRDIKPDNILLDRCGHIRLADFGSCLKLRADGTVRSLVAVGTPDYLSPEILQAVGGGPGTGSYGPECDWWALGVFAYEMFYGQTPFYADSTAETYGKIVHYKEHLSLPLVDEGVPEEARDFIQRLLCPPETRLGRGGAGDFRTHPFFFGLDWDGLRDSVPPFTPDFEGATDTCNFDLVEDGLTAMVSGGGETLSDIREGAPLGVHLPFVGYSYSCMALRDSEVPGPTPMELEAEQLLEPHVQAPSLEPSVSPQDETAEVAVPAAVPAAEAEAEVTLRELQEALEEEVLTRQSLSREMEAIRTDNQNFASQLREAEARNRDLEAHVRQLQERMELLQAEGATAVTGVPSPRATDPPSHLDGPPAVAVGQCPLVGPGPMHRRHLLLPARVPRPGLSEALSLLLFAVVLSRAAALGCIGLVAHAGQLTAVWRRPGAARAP
Description: as §1

[6] = molecular target: LOK (h) (Homo sapiens, UniProt O94804); assay: as above; assay type: biochemical; details: LOK(h); 100 μM
Description: as §1

[7] = molecular target: T2, DRAK1 (h) (Homo sapiens, UniProt Q9UEE5); assay: as above; assay type: biochemical; details: DRAK1(h); 100 μM
T2 sequence (Q9UEE5 1-414): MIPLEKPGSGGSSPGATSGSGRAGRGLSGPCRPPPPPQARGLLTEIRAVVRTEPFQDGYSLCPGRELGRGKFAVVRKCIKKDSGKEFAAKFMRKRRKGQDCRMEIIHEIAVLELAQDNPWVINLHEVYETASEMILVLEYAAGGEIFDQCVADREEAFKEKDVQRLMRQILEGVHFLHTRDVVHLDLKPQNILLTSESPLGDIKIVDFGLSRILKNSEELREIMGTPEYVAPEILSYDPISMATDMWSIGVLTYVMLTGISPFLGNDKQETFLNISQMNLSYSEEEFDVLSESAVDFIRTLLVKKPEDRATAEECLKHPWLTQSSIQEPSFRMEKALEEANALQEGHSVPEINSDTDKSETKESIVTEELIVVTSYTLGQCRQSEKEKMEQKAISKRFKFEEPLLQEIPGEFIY
Description: as §1

[8] = molecular target: EGFR (L861Q) (h) (Homo sapiens, UniProt P00533, L861Q); assay: as above; assay type: biochemical; details: EGFR(L861Q)(h); 100 μM
Description: as §1

[9] = molecular target: Pim-1 (h) (Homo sapiens, UniProt P11309); assay: biochemical; details: Pim-1(h); 100 μM
Description: as §1

[10] = molecular target: CaMK1δ (h) (Homo sapiens, UniProt Q8IU85); assay: biochemical; details: CaMKIδ(h); 100 μM
Description: as §1

[11] = molecular target: CaMKI (h) (Homo sapiens, UniProt Q14012); assay: biochemical; details: CaMKI(h); 100 μM
Description: as §1

[12] = molecular target: MSK1 (h) (Homo sapiens, UniProt O75582); assay: biochemical; details: MSK1(h); 100 μM
Description: as §1

[13] = molecular target: FGFR2 (h) (Homo sapiens, UniProt P21802); assay: biochemical; details: FGFR2(h); 100 μM
Description: as §1

[14] = molecular target: Fes(h) (Homo sapiens, UniProt P07332); assay: biochemical; details: 100 μM
Description: as §1

Sequence of CaMKI (h) (Q14012 whole entry): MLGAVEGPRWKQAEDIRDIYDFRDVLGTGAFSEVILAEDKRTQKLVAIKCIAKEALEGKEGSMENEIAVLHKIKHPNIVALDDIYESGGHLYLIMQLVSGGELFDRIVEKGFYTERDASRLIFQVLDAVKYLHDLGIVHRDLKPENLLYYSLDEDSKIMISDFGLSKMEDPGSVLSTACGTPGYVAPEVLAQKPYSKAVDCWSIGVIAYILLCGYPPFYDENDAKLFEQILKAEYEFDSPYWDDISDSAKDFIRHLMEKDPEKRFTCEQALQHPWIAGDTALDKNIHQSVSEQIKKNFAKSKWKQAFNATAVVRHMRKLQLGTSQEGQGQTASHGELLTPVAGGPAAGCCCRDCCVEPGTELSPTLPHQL
Sequence of Pim-1 (h) (P11309 whole entry): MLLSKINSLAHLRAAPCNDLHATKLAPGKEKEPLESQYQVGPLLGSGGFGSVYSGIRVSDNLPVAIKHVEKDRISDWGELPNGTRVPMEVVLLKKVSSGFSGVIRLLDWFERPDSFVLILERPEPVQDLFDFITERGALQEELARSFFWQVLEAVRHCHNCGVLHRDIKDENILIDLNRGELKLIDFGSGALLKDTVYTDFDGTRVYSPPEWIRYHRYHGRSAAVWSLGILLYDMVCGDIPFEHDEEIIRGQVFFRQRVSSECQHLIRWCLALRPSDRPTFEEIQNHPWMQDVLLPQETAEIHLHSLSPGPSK
Sequence of MSK1 (h) (O75582 whole entry): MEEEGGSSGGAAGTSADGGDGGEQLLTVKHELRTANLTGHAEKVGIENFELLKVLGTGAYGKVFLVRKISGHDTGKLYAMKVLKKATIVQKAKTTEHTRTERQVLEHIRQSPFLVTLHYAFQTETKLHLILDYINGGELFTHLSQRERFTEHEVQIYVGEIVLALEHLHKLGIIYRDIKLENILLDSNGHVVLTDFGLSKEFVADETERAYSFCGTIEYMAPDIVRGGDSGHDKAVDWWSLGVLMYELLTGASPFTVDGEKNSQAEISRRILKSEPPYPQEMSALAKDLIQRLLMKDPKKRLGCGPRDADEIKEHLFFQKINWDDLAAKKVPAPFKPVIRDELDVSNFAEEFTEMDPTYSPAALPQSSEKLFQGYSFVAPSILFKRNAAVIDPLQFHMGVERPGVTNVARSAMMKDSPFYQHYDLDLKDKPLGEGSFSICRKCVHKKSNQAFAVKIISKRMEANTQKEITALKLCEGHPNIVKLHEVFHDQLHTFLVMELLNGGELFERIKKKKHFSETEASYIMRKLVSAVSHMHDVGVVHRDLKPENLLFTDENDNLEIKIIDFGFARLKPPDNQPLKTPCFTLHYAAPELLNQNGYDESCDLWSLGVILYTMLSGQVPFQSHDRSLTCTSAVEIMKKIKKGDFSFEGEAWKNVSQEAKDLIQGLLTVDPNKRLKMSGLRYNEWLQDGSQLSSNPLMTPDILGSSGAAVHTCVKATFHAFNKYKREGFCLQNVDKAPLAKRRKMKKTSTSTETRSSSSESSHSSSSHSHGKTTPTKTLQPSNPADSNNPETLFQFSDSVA
Sequence of MAPKAP-K3 (h) (Q16644 whole entry): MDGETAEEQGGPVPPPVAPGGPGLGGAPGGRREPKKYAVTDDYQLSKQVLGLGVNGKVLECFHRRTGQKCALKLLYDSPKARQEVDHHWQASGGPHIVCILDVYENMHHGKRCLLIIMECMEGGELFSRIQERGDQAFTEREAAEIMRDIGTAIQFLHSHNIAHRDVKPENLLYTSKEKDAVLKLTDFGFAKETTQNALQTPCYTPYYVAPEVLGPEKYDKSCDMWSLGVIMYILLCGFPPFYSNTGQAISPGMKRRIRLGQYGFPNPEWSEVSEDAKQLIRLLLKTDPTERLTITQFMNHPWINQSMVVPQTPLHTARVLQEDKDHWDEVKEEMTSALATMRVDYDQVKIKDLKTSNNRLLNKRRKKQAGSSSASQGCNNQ
Sequence of CaMK1δ (h) (Q8IU85 whole entry): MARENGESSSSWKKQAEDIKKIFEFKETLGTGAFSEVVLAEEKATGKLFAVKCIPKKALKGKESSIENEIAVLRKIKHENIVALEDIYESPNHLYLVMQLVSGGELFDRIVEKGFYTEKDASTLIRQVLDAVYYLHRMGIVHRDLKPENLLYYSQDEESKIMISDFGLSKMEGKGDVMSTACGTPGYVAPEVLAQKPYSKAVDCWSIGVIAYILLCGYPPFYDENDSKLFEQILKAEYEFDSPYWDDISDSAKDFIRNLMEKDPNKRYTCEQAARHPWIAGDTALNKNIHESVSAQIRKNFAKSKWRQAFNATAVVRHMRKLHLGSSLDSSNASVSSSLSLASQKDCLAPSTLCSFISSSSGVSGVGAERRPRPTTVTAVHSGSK
Sequence of LOK (h) (O94804 whole entry): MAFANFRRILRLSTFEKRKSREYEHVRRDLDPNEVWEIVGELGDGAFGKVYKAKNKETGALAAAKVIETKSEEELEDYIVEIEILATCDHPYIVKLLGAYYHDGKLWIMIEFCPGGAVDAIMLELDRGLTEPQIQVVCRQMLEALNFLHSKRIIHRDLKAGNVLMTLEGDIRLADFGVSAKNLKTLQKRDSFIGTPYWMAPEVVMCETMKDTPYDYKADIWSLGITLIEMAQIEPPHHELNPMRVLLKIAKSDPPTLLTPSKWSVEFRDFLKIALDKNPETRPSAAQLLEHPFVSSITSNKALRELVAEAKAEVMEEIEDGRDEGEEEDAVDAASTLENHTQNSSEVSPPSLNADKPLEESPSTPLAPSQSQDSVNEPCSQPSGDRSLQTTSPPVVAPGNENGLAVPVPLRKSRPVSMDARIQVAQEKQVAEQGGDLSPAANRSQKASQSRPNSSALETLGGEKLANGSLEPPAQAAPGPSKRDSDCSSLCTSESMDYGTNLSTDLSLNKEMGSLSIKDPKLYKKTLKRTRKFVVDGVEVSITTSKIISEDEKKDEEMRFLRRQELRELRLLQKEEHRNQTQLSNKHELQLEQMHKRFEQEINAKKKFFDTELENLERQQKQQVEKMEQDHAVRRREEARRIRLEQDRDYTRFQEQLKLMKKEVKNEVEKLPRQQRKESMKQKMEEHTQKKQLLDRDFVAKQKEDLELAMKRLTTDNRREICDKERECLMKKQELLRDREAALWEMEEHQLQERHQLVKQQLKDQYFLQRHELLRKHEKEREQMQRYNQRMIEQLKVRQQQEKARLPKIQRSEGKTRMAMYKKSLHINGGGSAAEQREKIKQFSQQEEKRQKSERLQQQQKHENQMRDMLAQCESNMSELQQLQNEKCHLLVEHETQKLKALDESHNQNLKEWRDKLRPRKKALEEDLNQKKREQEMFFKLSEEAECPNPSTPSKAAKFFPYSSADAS
Sequence of MAPKAP-K2 (h) (P49137 whole entry): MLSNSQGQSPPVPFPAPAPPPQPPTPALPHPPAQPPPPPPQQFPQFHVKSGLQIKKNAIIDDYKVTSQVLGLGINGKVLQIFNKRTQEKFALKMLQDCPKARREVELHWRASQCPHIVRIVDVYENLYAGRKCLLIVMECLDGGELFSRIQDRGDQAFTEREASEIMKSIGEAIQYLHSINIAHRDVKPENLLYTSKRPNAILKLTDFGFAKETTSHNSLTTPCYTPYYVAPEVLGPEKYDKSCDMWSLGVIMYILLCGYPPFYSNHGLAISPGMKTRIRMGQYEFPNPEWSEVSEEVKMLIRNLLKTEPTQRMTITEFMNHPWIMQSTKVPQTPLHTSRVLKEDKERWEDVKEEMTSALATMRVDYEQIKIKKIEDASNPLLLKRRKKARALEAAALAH
Sequence of Fes(h) (P07332 whole entry): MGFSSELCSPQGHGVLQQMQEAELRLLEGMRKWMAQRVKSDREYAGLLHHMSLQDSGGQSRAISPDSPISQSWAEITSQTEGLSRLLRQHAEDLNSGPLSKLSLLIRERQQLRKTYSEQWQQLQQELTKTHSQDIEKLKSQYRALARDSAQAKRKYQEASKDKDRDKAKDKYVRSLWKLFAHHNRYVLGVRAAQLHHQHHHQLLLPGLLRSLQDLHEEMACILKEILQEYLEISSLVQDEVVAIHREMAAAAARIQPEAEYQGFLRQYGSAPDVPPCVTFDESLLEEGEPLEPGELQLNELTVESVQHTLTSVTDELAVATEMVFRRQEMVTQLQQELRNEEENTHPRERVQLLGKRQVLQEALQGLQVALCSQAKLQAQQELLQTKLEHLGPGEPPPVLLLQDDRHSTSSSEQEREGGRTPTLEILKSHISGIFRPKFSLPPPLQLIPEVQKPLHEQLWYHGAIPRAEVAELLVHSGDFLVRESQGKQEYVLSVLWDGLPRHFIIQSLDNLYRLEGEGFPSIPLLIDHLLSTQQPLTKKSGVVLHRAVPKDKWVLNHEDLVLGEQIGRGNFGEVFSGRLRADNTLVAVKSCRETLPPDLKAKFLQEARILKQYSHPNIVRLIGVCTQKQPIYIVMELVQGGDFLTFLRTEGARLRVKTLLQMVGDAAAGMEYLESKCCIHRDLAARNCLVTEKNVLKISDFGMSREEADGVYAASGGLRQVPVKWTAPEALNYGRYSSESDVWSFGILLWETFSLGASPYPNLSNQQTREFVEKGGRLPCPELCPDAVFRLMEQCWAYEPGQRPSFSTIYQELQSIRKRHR

Sequence | % activity ([1]; Src(1-530)(h)) | % activity ([1]; cSRC(h)) | % activity [2] | % activity [3] | % activity [4] | % activity [5] | % activity [6] | % activity [7] | % activity [8] | % activity [9] | % activity [10] | % activity [11] | % activity [12] | % activity [13] | % activity [14]
HRRIKAWLKKIKALARQLGVAA (mammal) [MMI-0500] | 21% | 30% | 9% | 9% | 12% | 12% | 7% | 8% | 15% | 0% | 0% | −1% | 8% | 12% | 23%
YARAAARQARAKALNRQLGVA (mammal) [MMI-0200] | 75% | 32% | 35% | 39% | 7% | 66% | 67% | 34% | 74% | 18% | 47% | 21% | 50% | 73% | 74%
